Numbering of substitutions follows the chain as printed. Where two headings read alike, the source gives them in different places.
B1: SC04-374 (scFv)
scFv: QVTLKESGPTLVKPTQTLTLTCTFSGFSLSTSGVGVGWIRQPPGKALEWLAVIYWNDDKLYRPSLKSRLTITKDTSKNQVVLTMTKMDPVDTATYYCAHRHRYYDISGYYRLFSDAFDIWGQGTMVTVSSGTGGSGGTGSGTGGSTQSVVTQPPSVSGAPGQRVTISCTGSSSNIGAGYDVHWYQQLPGTAPKLLIYGNSNRPSGVPDRFSGSKSGTSASLAITGLQAEDEADYYCQSYDSSLSGSVFGGGTKLTVLG
B2: CR4289 (antibody, V domains shown)
VH: EVQLVQSGAEVKKPGESLRISCKGSGYSFTSNWITWVRQMPGKGLEWMGRIDPSDSYTNYSPSFQGHVTISADKSISTAYLQWSSLKASDTAMYYCARDVVGVGASDYYYYMDVWGQGTTVTVSS
VL: EIVLTQSPGTLSLSPGETATLSCRTSQSVSSSYLGWYQQKPGQAPRLLIYGASIRATGIPARFSGSGSGTEFTLTIDSLQSEDFAVYYCQQYNNWPPITFGQGTRLEIKR
B3: SC04-361 (scFv)
scFv: EVQLVQSGAEVKKPGESLKISCKASGFSFSTYWIGWVRQMPGKGLEWMGIIYPADSDTRYSPSFQGQVTISADKSISTAYLQWSSLKASDTAMYYCARLRGPYYDFWNGYRETHDAFNVWGQGTMVTVSSGTGGSGGTGSGTGGSTDVVMTQSPDSLAVSLGERATINCKSSQNILDNSDNKNFLAWYQQKPGQPPKLLIYWASARESGVPDRFSGSGSGTDFTLTISSLQAEDVALYYCQQYYNTPITFGQGTRLEIKR
B4: CR4353 (antibody, V domains shown)
VH: QVQLVESGGGVVQPGRSLRLSCAASGFTFSNYAMHWVRQAPGKGLEWVAVISYDGGNKYYADSVKGRFTMSRDNSKNTLYLQMNSLRAEDTAVYYCARDFWSGYSMVDSYYYYMDVWGQGTTVTVSS
VL: ETTLTQSPGTLSLSPGERATLSCRASQSVSNTFLAWYQQKPGQAPRLLIYGASSRATGIPDRFSGSGSGTDFTLTISRLEPEDFAAYYCQQYGSSLTFGPGTKVDIKR
B5: CR5074 (antibody, V domains shown)
VH: QVTLKESGPTLVKPTQTLTLTCTFSGFSLSTSGVGVGWIRQPPGKALEWLAVIYWNDDKLYRPSLKSRLTITKDTSKNQVVLTMTKMDPVDTATYYCAHRHRYYDISGYYRLFSDAFDIWGQGTMVTVSS
VL: QSVLTQPPSVSGAPGQRVTISCTGSSSNIGTGYDVHWYQQLPGTAPKLLIYADTNRPSGVPDRFSGSKSGTSASLAITGVQAEDEADYYCQSYDTSLTGWVFGGGTKVTVLG
B6: CR5088 (antibody, V domains shown)
VH: B5 VH
VL: QSVVTQPPSVSGAPGQRITISCTGSSSNIGAGYDVHWYQQLPGTAPKFLIYGNSNRPSGVPDRFSGSKSGTSASLAITGLQAEDEADYYCQSYDSSLSGWVFGGGTKLTVLG
B7: CR5080 (antibody, V domains shown)
VH: B5 VH
VL: B6 VL with V4L, I18V, F48L, V101A
B8: CR5085 (antibody, V domains shown)
VH: B5 VH
VL: B6 VL with I18V, F48L, A86T, S98N
B9: CR4299 (antibody, V domains shown)
VH: QVQLVESGGGVVQPGRSLRLSCAASGFTFSGYAMHWVRQAPGKGLDWVAVISYDGSEKYSADSVKGRFTISRDNSKNTLYLQMNSLRAEDTAVYYCAKESGGPIWYKYYGVDVWGQGTTVTVSS
VL: SYVLTQPPSLSAAPRQRVTISCSGSSSNIGNYGVNWYQQLPGKAPKLLIYYDDLLPSGVSDRFSGSKSGTSASLAISGLQSEDEGDYYCAAWDDTLSAWVFGGGTKLTVLG
B10: SC04-353 (scFv)
scFv: EVQLVQSGGGVVQPGRSLRLSCAASGFTFSNYAMHWVRQAPGKGLEWVAVISYDGGNKYYADSVKGRFTMSRDNSKNTLYLQMNSLRAEDTAVYYCARDFWSGYSMVDSYYYYMDVWGKGTTVTVSSGTGGSGGTGSGTGGSTETTLTQSPGTLSLSPGERATLSCRASQSVSNTFLAWYQQKPGQAPRLLIYGASSRATGIPDRFSGSGSGTDFTLTISRLEPEDFAAYYCQQYGSSLTFGPGTKVDIKR

Key:
[1] = target: West Nile virus strain USA99b (strain 385-99), whole virus (West Nile virus strain 385-99 (USA99b)); experiment: phage ELISA on coated whole inactivated WNV
[2] = target: West Nile virus strain USA99b (strain 385-99), whole virus (West Nile virus strain 385-99 (USA99b)); experiment: ELISA on irradiated WNV; IgG1 at 0.000 µg/ml (no antibody)
[3] = target: West Nile virus strain USA99b (strain 385-99), whole virus (West Nile virus strain 385-99 (USA99b)); experiment: cell-based or functional assay
[4] = target: West Nile virus strain USA99b (strain 385-99), whole virus (West Nile virus strain 385-99 (USA99b)); experiment: ELISA on irradiated WNV; IgG1 at 1.250 µg/ml
[5] = target: West Nile virus strain USA99b (strain 385-99), whole virus (West Nile virus strain 385-99 (USA99b)); experiment: ELISA on irradiated WNV; IgG1 at 0.078 µg/ml
[6] = target: West Nile virus strain USA99b (strain 385-99), whole virus (West Nile virus strain 385-99 (USA99b)); experiment: ELISA on irradiated WNV; IgG1 at 2.500 µg/ml
[7] = target: West Nile virus strain USA99b (strain 385-99), whole virus (West Nile virus strain 385-99 (USA99b)); experiment: ELISA on irradiated WNV; IgG1 at 5.000 µg/ml
[8] = target: West Nile virus strain USA99b (strain 385-99), whole virus (West Nile virus strain 385-99 (USA99b)); experiment: ELISA on irradiated WNV; IgG1 at 10.000 µg/ml
[9] = target: West Nile virus strain USA99b (strain 385-99), whole virus (West Nile virus strain 385-99 (USA99b)); experiment: ELISA on irradiated WNV; IgG1 at 0.310 µg/ml
[10] = target: West Nile virus strain USA99b (strain 385-99), whole virus (West Nile virus strain 385-99 (USA99b)); experiment: ELISA on irradiated WNV; IgG1 at 0.630 µg/ml
[11] = target: West Nile virus strain USA99b (strain 385-99), whole virus (West Nile virus strain 385-99 (USA99b)); experiment: ELISA on irradiated WNV; IgG1 at 0.039 µg/ml
[12] = target: West Nile virus strain USA99b (strain 385-99), whole virus (West Nile virus strain 385-99 (USA99b)); experiment: ELISA on irradiated WNV; IgG1 at 0.160 µg/ml
[13] = target: West Nile virus strain USA99b (strain 385-99), whole virus (West Nile virus strain 385-99 (USA99b))
[14] = target: West Nile virus strain USA99b (strain 385-99), whole virus (West Nile virus strain 385-99 (USA99b)); experiment: SPR as in Example 9, WNV captured via immobilized CR4283, average of duplicates
[15] = target: West Nile virus strain USA99b (strain 385-99), whole virus (West Nile virus strain 385-99 (USA99b)); experiment: ELISA on irradiated WNV; IgG1 supernatant diluted 1:5
[16] = target: West Nile virus strain USA99b (strain 385-99), whole virus (West Nile virus strain 385-99 (USA99b)); experiment: ELISA on irradiated WNV; IgG1 supernatant diluted 1:125
[17] = target: West Nile virus strain USA99b (strain 385-99), whole virus (West Nile virus strain 385-99 (USA99b)); experiment: ELISA on irradiated WNV; IgG1 at 20.000 µg/ml
[18] = target: West Nile virus strain USA99b (strain 385-99), whole virus (West Nile virus strain 385-99 (USA99b)); experiment: ELISA on irradiated WNV; IgG1 supernatant diluted 1:25

| Binder | OD 492 nm [1] [OD] | OD 492 nm [2] [OD] | OD 492 nm [4] [OD] | OD 492 nm [5] [OD] | OD 492 nm [6] [OD] | OD 492 nm [7] [OD] | OD 492 nm [8] [OD] | OD 492 nm [9] [OD] | OD 492 nm [10] [OD] | OD 492 nm [11] [OD] | OD 492 nm [12] [OD] | Kd [14] [nM] | also measured |
| --- | --- | --- | --- | --- | --- | --- | --- | --- | --- | --- | --- | --- | --- |
| B1 | 0.975 | – | – | – | – | – | – | – | – | – | – | – | – |
| B2 | – | 0.003 | 0.415 | 0.209 | 0.492 | 0.586 | 0.752 | 0.313 | 0.351 | 0.147 | 0.25 | – | potency in the 66% neutralizing antibody titer assay [3]: 10.1 µg/mL |
| B3 | 0.66 | – | – | – | – | – | – | – | – | – | – | – | – |
| B4 | – | 0.003 | 1.42 | 0.734 | 1.43 | 1.55 | 1.57 | 1.17 | 1.33 | 0.595 | 1.07 | – | Kd [13]: 6.5 nM |
| B5 | – | – | – | – | – | – | – | – | – | – | – | 3.9 | – |
| B6 | – | – | – | – | – | – | – | – | – | – | – | 1.7 | – |
| B7 | – | – | – | – | – | – | – | – | – | – | – | 2.7 | – |
| B8 | – | – | – | – | – | – | – | – | – | – | – | 3.7 | – |
| B9 | – | 0.003 | 0.977 | 0.446 | 1.03 | 1.07 | 1.12 | 0.756 | 0.891 | 0.227 | 0.61 | – | potency in the 66% neutralizing antibody titer assay [3]: 3 µg/mL; OD 492 nm [15]: 1.48 OD; OD 492 nm [16]: 0.929 OD; OD 492 nm [17]: 1.19 OD; OD 492 nm [18]: 1.34 OD |
| B10 | 1 | – | – | – | – | – | – | – | – | – | – | – | – |
